Measured values taken from publication PMC12499500, “Structural Basis of GABAB Receptor Activation during Evolution” (Advanced Science, 2025).

Assays:
Assay in all cases: cell-based or functional assay
human GB2 Δ760 = biological target: T1, human GB2 Δ760 (human, UniProt O75899 42-760)
T1 sequence (looked up): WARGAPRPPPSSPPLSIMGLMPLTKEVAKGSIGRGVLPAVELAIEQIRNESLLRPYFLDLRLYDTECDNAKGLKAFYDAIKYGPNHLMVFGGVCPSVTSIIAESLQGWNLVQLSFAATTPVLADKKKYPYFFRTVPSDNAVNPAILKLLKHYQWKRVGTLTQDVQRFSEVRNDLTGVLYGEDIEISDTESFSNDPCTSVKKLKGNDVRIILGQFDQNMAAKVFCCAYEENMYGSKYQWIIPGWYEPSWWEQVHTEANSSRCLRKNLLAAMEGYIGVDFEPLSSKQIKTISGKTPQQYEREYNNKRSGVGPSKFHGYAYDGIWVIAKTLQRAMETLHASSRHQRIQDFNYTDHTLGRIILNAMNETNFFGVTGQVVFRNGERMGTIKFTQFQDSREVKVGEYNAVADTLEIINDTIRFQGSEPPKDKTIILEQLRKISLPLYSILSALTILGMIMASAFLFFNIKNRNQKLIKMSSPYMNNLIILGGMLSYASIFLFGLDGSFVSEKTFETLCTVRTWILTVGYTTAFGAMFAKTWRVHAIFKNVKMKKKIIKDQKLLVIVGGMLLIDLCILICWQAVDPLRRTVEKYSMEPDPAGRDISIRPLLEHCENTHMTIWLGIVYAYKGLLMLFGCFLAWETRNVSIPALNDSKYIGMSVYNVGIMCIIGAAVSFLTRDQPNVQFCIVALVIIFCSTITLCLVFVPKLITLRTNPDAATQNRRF

human GB2 Δ753 = biological target: T2, human GB2 Δ753 (human, UniProt O75899 42-753)
T2 sequence (looked up): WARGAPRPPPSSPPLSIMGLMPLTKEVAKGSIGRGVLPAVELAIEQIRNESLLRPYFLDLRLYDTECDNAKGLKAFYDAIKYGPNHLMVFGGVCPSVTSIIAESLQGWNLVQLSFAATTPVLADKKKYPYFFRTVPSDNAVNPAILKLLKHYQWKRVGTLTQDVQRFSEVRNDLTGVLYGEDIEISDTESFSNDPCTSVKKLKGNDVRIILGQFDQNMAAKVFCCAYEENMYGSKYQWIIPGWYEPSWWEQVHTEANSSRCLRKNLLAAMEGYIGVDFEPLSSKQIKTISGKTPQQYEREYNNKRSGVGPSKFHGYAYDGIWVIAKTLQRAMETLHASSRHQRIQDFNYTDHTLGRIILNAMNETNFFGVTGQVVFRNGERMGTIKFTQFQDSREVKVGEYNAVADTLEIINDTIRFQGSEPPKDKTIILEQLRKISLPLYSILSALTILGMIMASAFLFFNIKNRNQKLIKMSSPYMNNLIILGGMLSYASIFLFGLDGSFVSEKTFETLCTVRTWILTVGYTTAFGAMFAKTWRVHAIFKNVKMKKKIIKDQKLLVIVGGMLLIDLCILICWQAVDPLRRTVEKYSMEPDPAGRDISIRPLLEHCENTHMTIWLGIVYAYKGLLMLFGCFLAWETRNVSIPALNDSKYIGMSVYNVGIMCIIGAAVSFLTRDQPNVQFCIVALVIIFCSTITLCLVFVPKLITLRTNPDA

human GB2 Δ772 = biological target: T3, human GB2 Δ772 (human, UniProt O75899 42-772)
T3 sequence (looked up): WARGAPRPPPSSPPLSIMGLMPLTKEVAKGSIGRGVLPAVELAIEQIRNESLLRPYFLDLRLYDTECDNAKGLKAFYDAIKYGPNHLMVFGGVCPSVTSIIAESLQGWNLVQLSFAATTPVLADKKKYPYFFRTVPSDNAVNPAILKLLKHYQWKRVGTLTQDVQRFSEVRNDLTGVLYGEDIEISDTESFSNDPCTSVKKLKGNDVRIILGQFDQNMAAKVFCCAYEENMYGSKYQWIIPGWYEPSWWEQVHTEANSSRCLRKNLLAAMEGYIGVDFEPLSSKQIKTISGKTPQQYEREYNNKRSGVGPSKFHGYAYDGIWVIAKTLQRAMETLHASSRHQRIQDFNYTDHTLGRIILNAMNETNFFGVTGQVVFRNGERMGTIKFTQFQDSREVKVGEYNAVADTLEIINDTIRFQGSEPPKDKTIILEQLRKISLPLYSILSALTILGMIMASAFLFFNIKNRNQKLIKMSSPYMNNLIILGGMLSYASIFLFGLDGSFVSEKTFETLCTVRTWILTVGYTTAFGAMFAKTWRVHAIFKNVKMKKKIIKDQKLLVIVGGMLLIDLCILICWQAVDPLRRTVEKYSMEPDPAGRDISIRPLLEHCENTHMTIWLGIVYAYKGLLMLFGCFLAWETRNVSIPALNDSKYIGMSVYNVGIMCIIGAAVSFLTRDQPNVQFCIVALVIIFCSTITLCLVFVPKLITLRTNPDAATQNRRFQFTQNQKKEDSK

[1] = biological target: dGB2 4 × GSG (ordered C-terminus 717–728 replaced by four glycine-serine-glycine) (Drosophila melanogaster, UniProt Q9BML6 1-1220, 4 × GSG: residues 717–728 replaced with four consecutive glycine-serine-glycine)
Chain of dGB2 4 × GSG (ordered C-terminus 717–728 replaced by four glycine-serine-glycine) (Q9BML6 entry or part of it with the stated changes): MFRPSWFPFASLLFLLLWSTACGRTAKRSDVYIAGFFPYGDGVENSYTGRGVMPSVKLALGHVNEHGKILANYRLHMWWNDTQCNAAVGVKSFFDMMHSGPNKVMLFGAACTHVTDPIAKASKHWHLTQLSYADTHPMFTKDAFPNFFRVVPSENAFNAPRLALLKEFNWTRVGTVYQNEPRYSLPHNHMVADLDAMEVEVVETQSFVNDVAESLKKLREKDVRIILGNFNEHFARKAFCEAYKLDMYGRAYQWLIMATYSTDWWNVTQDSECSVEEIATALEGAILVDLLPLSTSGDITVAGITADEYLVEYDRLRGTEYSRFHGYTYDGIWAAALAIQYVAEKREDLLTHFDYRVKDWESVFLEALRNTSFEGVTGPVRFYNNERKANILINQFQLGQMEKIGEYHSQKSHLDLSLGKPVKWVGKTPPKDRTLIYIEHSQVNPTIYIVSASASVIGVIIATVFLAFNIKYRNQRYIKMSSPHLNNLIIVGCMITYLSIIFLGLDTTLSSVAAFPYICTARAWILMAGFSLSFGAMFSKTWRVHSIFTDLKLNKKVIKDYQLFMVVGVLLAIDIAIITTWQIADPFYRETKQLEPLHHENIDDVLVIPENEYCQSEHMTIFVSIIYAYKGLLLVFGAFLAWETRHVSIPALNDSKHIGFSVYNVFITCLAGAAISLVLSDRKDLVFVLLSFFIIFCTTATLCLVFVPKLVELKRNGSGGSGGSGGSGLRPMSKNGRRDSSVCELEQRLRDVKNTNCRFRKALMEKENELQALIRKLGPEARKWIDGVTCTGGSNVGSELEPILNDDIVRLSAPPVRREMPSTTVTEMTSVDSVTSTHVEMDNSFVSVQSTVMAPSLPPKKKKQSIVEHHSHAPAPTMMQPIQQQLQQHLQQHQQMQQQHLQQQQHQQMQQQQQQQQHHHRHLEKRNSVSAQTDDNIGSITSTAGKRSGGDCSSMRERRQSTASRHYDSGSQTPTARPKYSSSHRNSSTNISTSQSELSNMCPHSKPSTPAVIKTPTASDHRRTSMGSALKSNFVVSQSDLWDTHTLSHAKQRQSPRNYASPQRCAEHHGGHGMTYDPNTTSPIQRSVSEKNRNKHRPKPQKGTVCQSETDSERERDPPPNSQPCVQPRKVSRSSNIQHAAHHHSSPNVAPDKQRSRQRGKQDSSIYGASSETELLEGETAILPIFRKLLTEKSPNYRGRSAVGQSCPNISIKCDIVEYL

human GB2 Δ765 = biological target: T4, human GB2 Δ765 (human, UniProt O75899 42-765)
T4 sequence (looked up): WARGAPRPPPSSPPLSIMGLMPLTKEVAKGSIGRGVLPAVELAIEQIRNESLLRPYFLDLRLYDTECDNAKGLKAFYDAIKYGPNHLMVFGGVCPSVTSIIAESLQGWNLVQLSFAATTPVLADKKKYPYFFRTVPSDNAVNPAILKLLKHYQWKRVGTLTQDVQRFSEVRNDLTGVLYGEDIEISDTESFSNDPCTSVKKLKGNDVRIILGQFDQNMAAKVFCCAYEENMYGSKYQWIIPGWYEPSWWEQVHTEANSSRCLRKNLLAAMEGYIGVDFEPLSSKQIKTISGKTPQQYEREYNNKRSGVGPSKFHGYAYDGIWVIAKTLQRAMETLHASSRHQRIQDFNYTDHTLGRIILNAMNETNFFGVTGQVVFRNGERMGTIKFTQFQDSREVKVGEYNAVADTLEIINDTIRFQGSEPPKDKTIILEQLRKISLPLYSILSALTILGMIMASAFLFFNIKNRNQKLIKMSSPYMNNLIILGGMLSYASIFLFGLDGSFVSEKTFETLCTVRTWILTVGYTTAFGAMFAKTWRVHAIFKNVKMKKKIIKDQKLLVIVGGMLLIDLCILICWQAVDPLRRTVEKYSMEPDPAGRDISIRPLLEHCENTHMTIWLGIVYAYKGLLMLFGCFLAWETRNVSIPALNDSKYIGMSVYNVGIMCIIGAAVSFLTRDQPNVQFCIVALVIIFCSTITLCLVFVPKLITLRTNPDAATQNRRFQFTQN

[2] = biological target: dGB2 12A (ordered C-terminus 717–728 replaced by 12 alanines) (Drosophila melanogaster, UniProt Q9BML6 1-1220, 12A: residues 717–728 replaced with 12 consecutive alanine residues)
Chain of dGB2 12A (ordered C-terminus 717–728 replaced by 12 alanines) (Q9BML6 entry or part of it with the stated changes): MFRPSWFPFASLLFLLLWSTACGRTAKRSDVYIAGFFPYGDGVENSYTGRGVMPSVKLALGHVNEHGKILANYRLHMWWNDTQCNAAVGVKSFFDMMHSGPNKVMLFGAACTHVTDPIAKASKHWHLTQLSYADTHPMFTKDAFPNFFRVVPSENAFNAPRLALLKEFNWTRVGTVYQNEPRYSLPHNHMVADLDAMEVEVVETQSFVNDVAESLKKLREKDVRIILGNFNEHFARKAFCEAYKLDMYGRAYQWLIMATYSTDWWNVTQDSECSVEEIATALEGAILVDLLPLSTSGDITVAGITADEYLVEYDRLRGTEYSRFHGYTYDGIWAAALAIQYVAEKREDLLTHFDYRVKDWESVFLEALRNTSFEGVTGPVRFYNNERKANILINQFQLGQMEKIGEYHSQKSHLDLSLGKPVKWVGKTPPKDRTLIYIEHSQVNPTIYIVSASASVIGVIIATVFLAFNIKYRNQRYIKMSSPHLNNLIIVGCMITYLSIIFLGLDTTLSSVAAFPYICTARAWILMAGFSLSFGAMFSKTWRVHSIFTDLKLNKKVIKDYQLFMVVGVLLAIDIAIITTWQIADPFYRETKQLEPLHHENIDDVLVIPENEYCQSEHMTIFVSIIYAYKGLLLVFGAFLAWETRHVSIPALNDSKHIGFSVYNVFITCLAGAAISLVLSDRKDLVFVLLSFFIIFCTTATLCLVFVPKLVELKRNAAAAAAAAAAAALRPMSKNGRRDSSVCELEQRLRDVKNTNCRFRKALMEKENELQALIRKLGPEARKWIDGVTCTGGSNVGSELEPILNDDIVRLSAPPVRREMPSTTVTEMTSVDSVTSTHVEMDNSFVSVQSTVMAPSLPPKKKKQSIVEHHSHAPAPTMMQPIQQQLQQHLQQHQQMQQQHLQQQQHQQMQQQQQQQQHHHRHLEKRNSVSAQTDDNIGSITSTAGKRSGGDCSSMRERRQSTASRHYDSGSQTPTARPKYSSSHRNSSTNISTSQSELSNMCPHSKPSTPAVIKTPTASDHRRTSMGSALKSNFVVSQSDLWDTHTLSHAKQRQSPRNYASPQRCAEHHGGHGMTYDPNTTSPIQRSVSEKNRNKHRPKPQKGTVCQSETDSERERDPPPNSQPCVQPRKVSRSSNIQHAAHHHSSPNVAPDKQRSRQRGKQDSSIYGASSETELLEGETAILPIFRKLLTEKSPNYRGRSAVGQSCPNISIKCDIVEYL

GABA-induced intracellular Ca2+ release, HEK293 cells co-transfected with GB1ΔCC and the GB2 truncation, increase in EC50 against Δ780 of GB2 (human GB2 Δ760): 16.2 fold
GABA-induced intracellular Ca2+ release, HEK293 cells co-transfected with GB1ΔCC and the GB2 truncation, reduction in E max against Δ780 of GB2 (human GB2 Δ760): 39 % reduction in E max
GABA-induced intracellular Ca2+ release, HEK293 cells co-transfected with GB1ΔCC and the GB2 truncation, increase in EC50 against Δ780 of GB2 (human GB2 Δ753): 30.8 fold
GABA-induced intracellular Ca2+ release, HEK293 cells co-transfected with GB1ΔCC and the GB2 truncation, reduction in E max against Δ780 of GB2 (human GB2 Δ753): 76 % reduction in E max
GABA-induced intracellular Ca2+ release, HEK293 cells co-transfected with GB1ΔCC and the GB2 truncation, increase in EC50 against Δ780 of GB2 (human GB2 Δ772): 6.5 fold
BRET assay of GABA-induced dissociation of Gαi1 and Gβγ in HEK293 cells, change of EC50 against wild-type dGB2 [1]: 3 fold
GABA-induced intracellular Ca2+ release, HEK293 cells co-transfected with GB1ΔCC and the GB2 truncation, increase in EC50 against Δ780 of GB2 (human GB2 Δ765): 9.4 fold
GABA-induced intracellular Ca2+ release, HEK293 cells co-transfected with GB1ΔCC and the GB2 truncation, reduction in E max against Δ780 of GB2 (human GB2 Δ765): 22 % reduction in E max
BRET assay of GABA-induced dissociation of Gαi1 and Gβγ in HEK293 cells, change of EC50 against wild-type dGB2 [2]: 8.8 fold
GABA-induced intracellular Ca2+ release (Gqi9), change of EC50 of GABA against wild-type dGB2 [2]: 2 fold
B1: dominant-negative Gαi1 (S47N, G203A, E245A, A326S) (natural protein, human)
chain: MGCTLSAEDKAAVERSKMIDRNLREDGEKAAREVKLLLLGAGESGKNTIVKQMKIIHEAGYSEEECKQYKAVVYSNTIQSIIAIIRAMGRLKIDFGDSARADDARQLFVLAGAAEEGFMTAELAGVIKRLWKDSGVQACFNRSREYQLNDSAAYYLNDLDRIAQPNYIPTQQDVLRTRVKTTGIVETHFTFKDLHFKMFDVGAQRSERKKWIHCFEGVTAIIFCVALSDYDLVLAEDEEMNRMHASMKLFDSICNNKWFTDTSIILFLNKKDLFEEKIKKSPLTICYPEYAGSNTYEEAAAYIQCQFEDLNKRKDTKEIYTHFTCSTDTKNVQFVFDAVTDVIIKNNLKDCGLF
